Results from paper PMC10620681, “Concentration and time-dependent amyloidogenic characteristics of intrinsically disordered N-terminal region of Saccharomyces cerevisiae Stm1” (Frontiers in Microbiology, 2023).

Target: the molecule itself
Test: thioflavin-T fluorescence (emission spectra and kinetics); 20 uM Th-T with 1-400 uM Stm1_N 1-113; 10 mM sodium phosphate with 10 or 150 mM NaCl, pH 7.4, 25 °C; emission at 0 h, kinetics until 72 h; signal from 50 uM onwards

B1: Stm1 N-terminal region (Stm1_N^1-113) of Saccharomyces cerevisiae Stm1 (domain or fragment, UniProt P39015 1-113, looked up)
chain: MSNPFDLLGNDVEDADVVVLPPKEIVKSNTSSKKADVPPPSADPSKARKNRPRPSGNEGAIRDKTAGRRNNRSKDVTDSATTKKSNTRRATDRHSRTGKTDTKKKVNQGWGDD
notes: Stm1, Saccharomyces cerevisiae (S288c), stm1 gene YLR150W, residues 1-113 of the 273 amino acids long protein; the insert is 342 nucleotides with the termination codon; Order in the construct: N-terminal His6-tag, GB1 solubility tag, TEV protease cleavage site, Stm1_N 1-113 (vector pDZ1, a modified pET-21a); A few residues from the TEV site and the NdeI site may be left at the N-terminus after …
binding result: binds
